Data taken from publication PMC3262080.

Target: HuR (UniProt Q15717 1-326)
Assay: fluorescence anisotropy

Chain of HuR (Q15717 whole entry): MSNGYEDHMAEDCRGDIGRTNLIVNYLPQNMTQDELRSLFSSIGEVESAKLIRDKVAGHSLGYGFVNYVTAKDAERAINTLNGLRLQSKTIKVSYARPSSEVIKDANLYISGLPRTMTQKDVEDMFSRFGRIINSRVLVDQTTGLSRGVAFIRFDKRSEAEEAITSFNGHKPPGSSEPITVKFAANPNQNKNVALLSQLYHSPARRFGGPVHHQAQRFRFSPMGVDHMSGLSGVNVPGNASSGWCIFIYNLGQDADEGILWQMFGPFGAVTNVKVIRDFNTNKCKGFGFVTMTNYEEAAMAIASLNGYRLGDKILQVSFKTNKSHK

Q: Which Kd does the source give for UAGCAGCACGUAAAUAUUGGCG (ssRNA) [miR-16 (mature, 5'TMR-labeled)] here?
A: 120 ± 9 nM
